In article PMC8463545:

What was measured:
Assay in all cases: SPR
Settings in all cases: EMSA: 10 mM Tris-HCl pH 7.5, 50 mM KCl, 1 mM DTT, 0.4% glycerol, 20 uL, 28 C, 25-30 min; 5% native gel, 0.5x TBE, 4 C; SPR conditions not given
[1] = test system: HtsH1C-Flag-His (Lysobacter enzymogenes OH11)
[2] = test system: HtsH3C-Myc-His (Lysobacter enzymogenes OH11)
[3] = test system: HtsH2C-HA-His (Lysobacter enzymogenes OH11)

plafB (SPR) was tested, and the Kd [1] was 536 nM, the Kd [2] was 249 nM and the Kd [3] was 1380 nM.
